Consider five substances from IntAct's records for PubMed 34400613.

The target in assay [1] is G3BP1 (UniProt Q13283).
Assay [2] deals with G3BP1 (UniProt Q13283). This is another data set of the same source.

UniProt Q13283, sequence (Q13283 whole entry, looked up): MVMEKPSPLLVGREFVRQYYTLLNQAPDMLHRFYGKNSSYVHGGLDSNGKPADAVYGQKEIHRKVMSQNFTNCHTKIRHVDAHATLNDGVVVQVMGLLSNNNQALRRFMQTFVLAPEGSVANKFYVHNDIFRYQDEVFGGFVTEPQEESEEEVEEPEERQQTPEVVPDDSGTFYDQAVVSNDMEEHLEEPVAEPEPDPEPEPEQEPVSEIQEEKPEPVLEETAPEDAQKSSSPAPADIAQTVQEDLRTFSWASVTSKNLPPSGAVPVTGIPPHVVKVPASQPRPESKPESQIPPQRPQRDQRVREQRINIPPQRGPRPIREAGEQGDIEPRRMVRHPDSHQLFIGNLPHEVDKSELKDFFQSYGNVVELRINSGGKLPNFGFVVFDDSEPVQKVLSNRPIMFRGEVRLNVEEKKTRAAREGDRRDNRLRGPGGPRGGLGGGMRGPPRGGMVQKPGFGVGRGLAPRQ

Consider “Nucleoprotein (SARS-CoV-2) (from UniProt P0DTC9) I15A”, for which the “effect of a mutation on the interaction” value with G3BP1 [1] is “decreasing interaction strength”.
Take “Nucleoprotein (SARS-CoV-2) (from UniProt P0DTC9) I15A;T16A;F17A;G18A”: the “effect of a mutation on the interaction” value with G3BP1 [2] is reported as “disrupting interaction strength”.
Consider “Nucleoprotein (SARS-CoV-2) (from UniProt P0DTC9) G18A”, for which the “effect of a mutation on the interaction” value with G3BP1 [2] is “decreasing interaction strength”.
As to “Nucleoprotein (SARS-CoV-2) (from UniProt P0DTC9) T16A”, the “effect of a mutation on the interaction” value in the assay with G3BP1 [1] is recorded as “decreasing interaction strength”.
For the substance “Nucleoprotein (SARS-CoV-2) (from UniProt P0DTC9) G18E”, the “effect of a mutation on the interaction” value in the assay with G3BP1 [1] is listed as “decreasing interaction strength”.
